{
  "source": "paper PMC7840056",
  "data": [
    {"molecular_target": "NiuDΔ7, C-terminally truncated NiuD fused to the T18 fragment", "experiment": "bacterial two-hybrid (BACTH), ß-galactosidase activity", "details": "E. coli strain BTH101; each measurement was performed three times; parent: est. 2500; read off a plot", "units": {"response": "Miller Units"}, "values": [
      {"substance": "SlyD wild type fused to the T25 fragment of Bordetella pertussis adenylate cyclase (pNKT25) (from UniProt O25748) I47S; Y73A; F137Y", "response": 2100}
    ]},
    {"molecular_target": "SlyD wild type fused to the T25 fragment of Bordetella pertussis adenylate cyclase (pNKT25) (UniProt O25748)", "experiment": "bacterial two-hybrid (BACTH), ß-galactosidase activity", "details": "E. coli strain BTH101; each measurement was performed three times; parent: est. 2500; read off a plot", "units": {"response": "Miller Units"}, "values": [
      {"substance": "NiuDΔ7, C-terminally truncated NiuD fused to the T18 fragment P203V", "response": 1500},
      {"substance": "NiuDΔ7, C-terminally truncated NiuD fused to the T18 fragment R208G; W209G; R210G", "response": 30},
      {"substance": "NiuDΔ7, C-terminally truncated NiuD fused to the T18 fragment R208Q", "response": 95},
      {"substance": "NiuDΔ7, C-terminally truncated NiuD fused to the T18 fragment R208S", "response": 1000},
      {"substance": "NiuDΔ7, C-terminally truncated NiuD fused to the T18 fragment R210G", "response": 120},
      {"substance": "NiuDΔ7, C-terminally truncated NiuD fused to the T18 fragment W209F", "response": 1200},
      {"substance": "NiuDΔ7, C-terminally truncated NiuD fused to the T18 fragment W209G", "response": 720}
    ]},
    {"molecular_target": "NiuD permease subunit of the NiuBDE nickel ABC transporter, full length, fused to the T18 fragment (pUT18)", "experiment": "bacterial two-hybrid (BACTH), ß-galactosidase activity", "details": "E. coli strain BTH101; each measurement was performed three times; parent: est. 2400; read off a plot", "units": {"response": "Miller Units"}, "values": [
      {"substance": "SlyD wild type fused to the T25 fragment of Bordetella pertussis adenylate cyclase (pNKT25) (from UniProt O25748) I47S; Y73A; F137Y", "response": 1800}
    ]}
  ]
}
